Data: patent publication US20230381333A1 (HANMI PHARM, published 2023)
Bridge positions count the residues as written; N and C are the ends. Square brackets hold non-standard residues; d marks the D form. Ends that are not written are not given here. * marks the point of attachment. Acetyl(2-(4-imidazolyl)) = O=C(Cc1c[nH]cn1)*; Aib = CC(C)(N)C(=O)O

T1: human GIP receptor (human, UniProt P48546 22-466)
T1 sequence (looked up): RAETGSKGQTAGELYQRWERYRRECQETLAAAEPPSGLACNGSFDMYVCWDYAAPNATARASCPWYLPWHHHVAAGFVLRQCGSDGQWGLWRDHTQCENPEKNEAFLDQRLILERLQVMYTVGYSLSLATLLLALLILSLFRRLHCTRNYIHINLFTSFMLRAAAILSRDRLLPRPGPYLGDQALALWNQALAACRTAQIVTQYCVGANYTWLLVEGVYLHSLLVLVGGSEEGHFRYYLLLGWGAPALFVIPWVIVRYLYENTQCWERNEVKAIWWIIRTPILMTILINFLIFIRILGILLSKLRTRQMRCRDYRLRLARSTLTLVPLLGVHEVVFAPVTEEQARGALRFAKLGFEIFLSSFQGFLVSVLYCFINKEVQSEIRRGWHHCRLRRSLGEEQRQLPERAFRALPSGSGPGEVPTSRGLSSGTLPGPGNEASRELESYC


Each binder was assayed against human GCG receptor (human, UniProt P47871 26-477) (assay: cell-based or functional assay).
human GCG receptor, sequence (P47871 26-477): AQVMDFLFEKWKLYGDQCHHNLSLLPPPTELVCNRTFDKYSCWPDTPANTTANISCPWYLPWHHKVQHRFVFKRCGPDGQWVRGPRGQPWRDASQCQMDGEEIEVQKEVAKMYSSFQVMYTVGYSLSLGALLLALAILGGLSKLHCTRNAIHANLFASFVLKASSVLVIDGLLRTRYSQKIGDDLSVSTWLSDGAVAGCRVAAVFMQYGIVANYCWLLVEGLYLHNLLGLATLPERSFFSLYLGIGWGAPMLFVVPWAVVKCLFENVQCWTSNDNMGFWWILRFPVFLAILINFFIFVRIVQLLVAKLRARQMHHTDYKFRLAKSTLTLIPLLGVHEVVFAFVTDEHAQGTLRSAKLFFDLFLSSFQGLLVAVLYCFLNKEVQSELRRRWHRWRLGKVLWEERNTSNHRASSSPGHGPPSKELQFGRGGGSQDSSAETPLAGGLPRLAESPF

Binder | In vitro activity compared to native-type peptide (%), vs Glucagon [%]
H[Aib]QGTFTSDVSKYLDGQAAQEFVAWLLAGGGPSSGAPPPSC [triple agonist of SEQ ID NO: 10] | < 0.1
Y[Aib]QGTFTSDYSKYLDECRAKEFVQWLLDHHPSSGQPPPS (bridge 16-20) [triple agonist of SEQ ID NO: 21] | 267
Y[Aib]QGTFTSDYSKYLDEKRAKEFVQWLLDHCPSSGQPPPS (bridge 16-20) [triple agonist of SEQ ID NO: 96] | 195
[Acetyl(2-(4-imidazolyl))]GQGTFTSDLSKQMDSERAREFIEWLKNTGPSSGAPPPSHG [triple agonist of SEQ ID NO: 18] | < 0.1
{Acetyl(2-(4-imidazolyl))}-[Aib]EGTFTSDYSIAMDEIHQKDFVDWLLAEKC (bridge 15-19) [triple agonist of SEQ ID NO: 91] | 16.8
Y[Aib]QGTFTSDYSKALDEKAAKEFVNWLLDHHPSSGQPPPSC (bridge 16-20) [triple agonist of SEQ ID NO: 98] | 8.2
[Acetyl(2-(4-imidazolyl))]GEGTFTSDLSKYLDSRRQQLFVQWLKAGGPSSGAPPPSHG [triple agonist of SEQ ID NO: 11] | < 0.1
[Acetyl(2-(4-imidazolyl))]GQGTFTSDLSKQMDSEAQQLFIEWLKNGGPSSGAPPPSHG [triple agonist of SEQ ID NO: 16] | < 0.1
Y[Aib]QGTFTSDYSKALDEKAAKDFVNWLLDHHPSSGQPPPSC (bridge 16-20) [triple agonist of SEQ ID NO: 99] | 14.9
{Acetyl(2-(4-imidazolyl))}-[Aib]QGTFTSDYSIAMDEIHQKDFVNWLLAQKC (bridge 15-19) [triple agonist of SEQ ID NO: 92] | < 0.1
{Acetyl(2-(4-imidazolyl))}-[Aib]EGTFTSDYSIAMDEIHQKDFVNWLLAQKC (bridge 15-19) [triple agonist of SEQ ID NO: 90] | < 0.1
Y[Aib]QGTFTSDYSKALDEKAAKDFVNWLLDQHPSSGQPPPSC (bridge 16-20) [triple agonist of SEQ ID NO: 102] | 29.5

What follows are binders tested against human GLP-1 receptor (human, UniProt P43220 24-463) (assay: cell-based or functional assay).

Binder | In vitro activity compared to native-type peptide (%), vs GLP-1 [%]
H[Aib]QGTFTSDVSKYLDGQAAQEFVAWLLAGGGPSSGAPPPSC [triple agonist of SEQ ID NO: 10] | 46
Y[Aib]QGTFTSDYSKYLDECRAKEFVQWLLDHHPSSGQPPPS (bridge 16-20) [triple agonist of SEQ ID NO: 21] | 17.8
Y[Aib]QGTFTSDYSKYLDEKRAKEFVQWLLDHCPSSGQPPPS (bridge 16-20) [triple agonist of SEQ ID NO: 96] | 34.4
[Acetyl(2-(4-imidazolyl))]GQGTFTSDLSKQMDSERAREFIEWLKNTGPSSGAPPPSHG [triple agonist of SEQ ID NO: 18] | < 0.1
{Acetyl(2-(4-imidazolyl))}-[Aib]EGTFTSDYSIAMDEIHQKDFVDWLLAEKC (bridge 15-19) [triple agonist of SEQ ID NO: 91] | 31.9
Y[Aib]QGTFTSDYSKALDEKAAKEFVNWLLDHHPSSGQPPPSC (bridge 16-20) [triple agonist of SEQ ID NO: 98] | 28.1
[Acetyl(2-(4-imidazolyl))]GEGTFTSDLSKYLDSRRQQLFVQWLKAGGPSSGAPPPSHG [triple agonist of SEQ ID NO: 11] | 1.4
[Acetyl(2-(4-imidazolyl))]GQGTFTSDLSKQMDSEAQQLFIEWLKNGGPSSGAPPPSHG [triple agonist of SEQ ID NO: 16] | 2.1
Y[Aib]QGTFTSDYSKALDEKAAKDFVNWLLDHHPSSGQPPPSC (bridge 16-20) [triple agonist of SEQ ID NO: 99] | 20.9
{Acetyl(2-(4-imidazolyl))}-[Aib]QGTFTSDYSIAMDEIHQKDFVNWLLAQKC (bridge 15-19) [triple agonist of SEQ ID NO: 92] | 0.8
{Acetyl(2-(4-imidazolyl))}-[Aib]EGTFTSDYSIAMDEIHQKDFVNWLLAQKC (bridge 15-19) [triple agonist of SEQ ID NO: 90] | 7.4
Y[Aib]QGTFTSDYSKALDEKAAKDFVNWLLDQHPSSGQPPPSC (bridge 16-20) [triple agonist of SEQ ID NO: 102] | 23.3

Each binder was assayed against T1, human GIP receptor (assay: cell-based or functional assay).

Binder | In vitro activity compared to native-type peptide (%), vs GIP [%]
H[Aib]QGTFTSDVSKYLDGQAAQEFVAWLLAGGGPSSGAPPPSC [triple agonist of SEQ ID NO: 10] | < 0.1
Y[Aib]QGTFTSDYSKYLDECRAKEFVQWLLDHHPSSGQPPPS (bridge 16-20) [triple agonist of SEQ ID NO: 21] | 22.7
Y[Aib]QGTFTSDYSKYLDEKRAKEFVQWLLDHCPSSGQPPPS (bridge 16-20) [triple agonist of SEQ ID NO: 96] | 5.2
[Acetyl(2-(4-imidazolyl))]GQGTFTSDLSKQMDSERAREFIEWLKNTGPSSGAPPPSHG [triple agonist of SEQ ID NO: 18] | < 0.1
{Acetyl(2-(4-imidazolyl))}-[Aib]EGTFTSDYSIAMDEIHQKDFVDWLLAEKC (bridge 15-19) [triple agonist of SEQ ID NO: 91] | 0.3
Y[Aib]QGTFTSDYSKALDEKAAKEFVNWLLDHHPSSGQPPPSC (bridge 16-20) [triple agonist of SEQ ID NO: 98] | 47.1
[Acetyl(2-(4-imidazolyl))]GEGTFTSDLSKYLDSRRQQLFVQWLKAGGPSSGAPPPSHG [triple agonist of SEQ ID NO: 11] | < 0.1
[Acetyl(2-(4-imidazolyl))]GQGTFTSDLSKQMDSEAQQLFIEWLKNGGPSSGAPPPSHG [triple agonist of SEQ ID NO: 16] | < 0.1
Y[Aib]QGTFTSDYSKALDEKAAKDFVNWLLDHHPSSGQPPPSC (bridge 16-20) [triple agonist of SEQ ID NO: 99] | 57.7
{Acetyl(2-(4-imidazolyl))}-[Aib]QGTFTSDYSIAMDEIHQKDFVNWLLAQKC (bridge 15-19) [triple agonist of SEQ ID NO: 92] | 0.4
{Acetyl(2-(4-imidazolyl))}-[Aib]EGTFTSDYSIAMDEIHQKDFVNWLLAQKC (bridge 15-19) [triple agonist of SEQ ID NO: 90] | < 0.1
Y[Aib]QGTFTSDYSKALDEKAAKDFVNWLLDQHPSSGQPPPSC (bridge 16-20) [triple agonist of SEQ ID NO: 102] | 58
